In patent US7553667B2, “Regulation of gene expression using chromatin remodelling factors” (Her Majesty the Queen in right of Canada as represented by …, priority 2002, dated 2009):

T1: GST-HDA19 (Arabidopsis thaliana, UniProt O22446)
T1 construct: made in house; host or cells: E. coli BL21-CodonPlus (DE3)-RP
T1 sequence (O22446 1-501): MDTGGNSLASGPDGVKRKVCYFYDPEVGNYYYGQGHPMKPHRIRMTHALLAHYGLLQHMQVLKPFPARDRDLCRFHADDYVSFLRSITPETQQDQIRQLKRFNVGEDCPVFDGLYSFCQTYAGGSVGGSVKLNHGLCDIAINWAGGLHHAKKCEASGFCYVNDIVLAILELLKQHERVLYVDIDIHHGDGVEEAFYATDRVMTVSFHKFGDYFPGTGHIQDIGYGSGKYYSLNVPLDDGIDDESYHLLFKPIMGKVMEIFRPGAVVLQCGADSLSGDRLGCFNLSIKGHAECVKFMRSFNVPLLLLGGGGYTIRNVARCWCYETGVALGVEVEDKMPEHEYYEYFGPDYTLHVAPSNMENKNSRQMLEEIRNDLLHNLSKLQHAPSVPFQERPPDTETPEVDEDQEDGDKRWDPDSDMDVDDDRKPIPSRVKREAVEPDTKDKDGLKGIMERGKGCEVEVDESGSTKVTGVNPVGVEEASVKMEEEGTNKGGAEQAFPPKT

T2: GST-Gcn5 (Arabidopsis thaliana, UniProt Q9AR19)
T2 construct: made in house; host or cells: E. coli BL21-CodonPlus (DE3)-RP
T2 sequence (Q9AR19 1-568): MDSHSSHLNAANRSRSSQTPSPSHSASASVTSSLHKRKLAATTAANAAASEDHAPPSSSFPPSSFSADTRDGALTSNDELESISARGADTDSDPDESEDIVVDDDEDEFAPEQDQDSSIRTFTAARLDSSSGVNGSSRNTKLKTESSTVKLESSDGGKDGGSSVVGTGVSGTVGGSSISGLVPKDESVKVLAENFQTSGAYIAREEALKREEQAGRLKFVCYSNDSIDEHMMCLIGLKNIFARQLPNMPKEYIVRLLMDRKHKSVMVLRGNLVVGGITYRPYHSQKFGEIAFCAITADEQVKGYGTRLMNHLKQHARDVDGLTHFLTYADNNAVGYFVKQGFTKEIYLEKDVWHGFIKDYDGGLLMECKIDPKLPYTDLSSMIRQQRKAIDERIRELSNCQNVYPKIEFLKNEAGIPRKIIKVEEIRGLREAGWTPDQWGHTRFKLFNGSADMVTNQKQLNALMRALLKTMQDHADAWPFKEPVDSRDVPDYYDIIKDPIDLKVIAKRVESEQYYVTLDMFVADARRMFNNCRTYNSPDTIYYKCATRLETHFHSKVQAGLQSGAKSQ

T3: Gcn5 (Arabidopsis thaliana, UniProt Q9AR19)
T3 construct: expressed in transfected cells; host or cells: Saccharomyces cerevisiae MaV203
T3 sequence (Q9AR19 1-568): T2 sequence (Q9AR19 1-568)

B1: BnSCL1: Brassica napus SCARECROW-like protein 1, SEQ ID NO:81 (protein)
chain: MKLQASSPQDNQPSNTTNNSTDSNHLSMDEHAMRSMDWDSIMKELEVDDDSAPYQLQPSSFNLPVFPDIDSSDVYPGPNQITGYGFNSLDSVDNGGFDYIEDLIRVVDCIESDELHLAHVVLSQLNQRLQTSAGRPLQRAAFYFKEALGSLLTGTNRNQLFSWSDIVQKIRAIKEFSGISPIPLFSHFTANQAILDSLSSQSSSPFVHVVDFEIGFGGQYASLMREIAEKSANGGFLRVTAVVAEDCAVETRLVKENLTQFAAEMKIRFQIEFVLMKTFEILSFKAIRFVDGERTVVLISPAIFRRVIGIAEFVNNLGRVSPNVVVFVDSEGCTETAGSGSFRREFVSAFEFYTMVLESLDAAAPPGDLVKKIVETFLLRPKISAAVETAANRRSAGQMTWREMLCAAGMRPVQLSQFADFQAECLLEKAQVRGFHVAKRQGELVLCWHGRALVATSAWRF
modifications: left off: large carriers
B2: bnKCP1: B. napus KID-containing protein 1, 215 amino acid protein interacting with HDA19 (SEQ ID NO:71) (protein)
chain: MAGGGPTFSIELSAYGSDLPTDKASGDIPNEEGSGLSRVGSGIWSGRTVDYSSESSSSIGTPGDSEEEDEESEEDNDEEELGLASLRSLEDSLPSKGLSSHYKGKSKSFGNLGEIGSVKEVPKQENPLNKKRRLQIYNKLARKSFYSWQNPKSMPLLPVHEDNDDEEGDDGDLSDEERGGDVLARRPSFKNRALKSMSCFALSDLQEEEEEEEDE
modifications: left off: large carriers

Columns and labels:
[1] = molecular target: T1, GST-HDA19; assay: GST pulldown affinity assay of BnSCL1 and mutants with GST-HDA19; assay type: binding; conditions: [35S]Met-labeled in vitro translated protein
Procedure: The open reading frame (ORF) of the HDA19 was PCR amplified, sequence analyzed, inserted in-frame with the GST (glutathione s-transferase) into the vector pGEX-6P-2 (Amersham Pharmacia), and transformed into E. coli BL21-CodonPlus (DE3)-RP competent cells (Stratagene) as previously described (Gao et al., 2003). The recombinant HDA19 protein was expressed and purified under non-denaturing conditions as described by Gao et al, 2002). The GST-HDA19 fusion protein was analyzed by western blotting with rabbit anti-GST-Pi polyclonal antibody (Chemicon) using ECL Western blotting analysis system (Amersham Pharmacia).
The entire coding region of BnSCL1 and four fragments, BnSCL1^1-358, BnSCL1^1-261, BnSCL1^1-217, and BnSCL1^1-145 […], respectively, were amplified by PCR and cloned into the HindIII and XhoI sites of the expression vector pET-28b (Novagen) in-frame with the His-Tag sequence. […]
The TnT-Quick Coupled Transcription/Translation System (Promega) was used to produce the full-length BnSCL1 protein and the truncated mutants ΔBnSCL1^1-358, ΔBnSCL1^1-261, ΔBnSCL1^1-217 and ΔBnSCL1^1-145 labeled with [^35S]methionine as previously described (Gao et al., 2003). In vitro protein interaction was detected with GST pulldown affinity assays as described by Ahmad et al. (1999) and Gao et al., (2003).

[2] = test system: lacZ reporter gene driven by a promoter containing GAL4 DNA binding sites; assay: Transactivation assay of BnSCL1 in yeast; assay type: cell-based, yeast MaV203
From the text: MaV203 yeast cells expressing the lacZ reporter gene driven by a promoter containing GAL4 DNA binding sites (GibcoL BRL) were transformed with the […]. These vectors were constructed by ligating the PCR-amplified fragments, ΔBnSCL1^1-358, ΔBnSCL1^1-261, ΔBnSCL1^1-217, ΔBnSCL1^1-145, ΔBnSCL1^146-358 and ΔBnSCL1^218-434 and the entire coding region of BnSCL1, respectively, into the SalI and NotI sites of the vector pDBLeu (GibcoL BRL) in-frame with the GAL4 DB sequence. The oligonucleotide primers for the amplification were the same as those used for the in vivo protein interaction assays. The β-galactosidase activity was measured using CPRG according to the manufacturer's instructions (GibcoL BRL). In addition to the yeast strains A, B and C, the yeast strains D (GibcoL BRL) that contain plasmid pairs expressing fusion protein with strong interaction strength was used as controls.

[3] = molecular target: T1, GST-HDA19; assay: GST pulldown affinity assay of bnKCP1 and mutants with GST-HDA19; assay type: binding; conditions: [35S]Met-labeled in vitro translated protein
From the text: (§1) The full coding regions of the Arabidopsis HAT, Gcn5 (Dr. M. Thomashow, Michigan State University, MI), and HDA19 (Accession # AF195547) were PCR amplified, sequence analyzed and inserted in-frame with the GST (glutathione s-transferase) into the SalI and NotI sites of vector pGEX-6P-2 (Amersham Pharmacia). The forward used for the amplification of Gcn5 was:
(§2) Recombinant pGEX-6P-2 plasmids were used to transform E. coli BL21-CodonPlus (DE3)-RP competent cells (Stratagene). Expression and purification under non-denaturing conditions were carried out as described by Gao et al. (Gao, M.-J. et al., 2002). The GST-Gcn5 and GST-HDA19 fusion proteins were analyzed by 7.5% SDS-PAGE (SDS-polyacrylamide gel electrophoresis) and western blotting with rabbit anti-GST-Pi polyclonal antibody (Chemicon) using ECL Western blotting analysis system (Amersham Pharmacia).
(§3) Full-length bnKCP1 and truncated mutant bnKCP1^1-160 and bnKCP1^1-80 proteins labeled with [^35S]methionine were produced using TNT-Quick Coupled Transcription/Translation System (Promega) according to the manufacture's instructions, with some modifications. A total of 1 μl of RNase inhibitor (GibcoL BRL) and 1 μl of protease inhibitors set (Roche) were added to the lysate reaction. After incubation for 90 min at 30° C., RNase A was added to the reaction to a final concentration of 0.2 mg/ml and incubated for 5 min at the same temperature.
In vitro protein interaction was detected with GST pulldown affinity assays as described by Ahmad et al. (1999) with some modifications. Briefly, 6 μg of GST or 4 μg of GST-fusion protein was incubated with 5 μl of [^35S]Met-labeled translation mixture in 200 μl of bead-binding buffer (50 mM K-phosphate, pH 7.6, 450 mM KCl, 10 mM MgCl2, 10% glycerol, 1% Triton X-100, 1% BSA and 1 μl of diluted 1:12 protease inhibitors set) for 1 h at room temperature. After incubation, 20 μl of 50% slurry of glutathione-Sepharose beads containing 10 mg/ml of BSA and 4 μg of EtBr was mixed with the reaction mixture followed by gentle rotation for 1 h at 4° C. After washing six times with 1.2 ml of bead-binding buffer without BSA and EtBr but containing 12 μl of protease inhibitors set (Roche), the bound proteins were eluted with 30 μl of 2×SDS loading buffer, boiled for 2 min and analyzed by 12% SDS-PAGE. After electrophoresis, the gels were dried, treated with Amplify (Amersham Pharmacia) and subjected to fluorography.

[4] = molecular target: T2, GST-Gcn5; assay: GST pulldown affinity assay of bnKCP1 and mutants with GST-Gcn5; assay type: binding; conditions: [35S]Met-labeled in vitro translated protein
From the text: as §1, §2, §3
In vitro protein interaction was detected with GST pulldown affinity assays as described by Ahmad et al. (1999) with some modifications. […] After washing six times with 1.2 ml of bead-binding buffer without BSA and EtBr but containing 12 μl of protease inhibitors set (Roche), the bound proteins were eluted with 30 μl of 2×SDS loading buffer, boiled for 2 min and analyzed by 12% SDS-PAGE. […]

[5] = molecular target: T3, Gcn5; assay: Yeast two-hybrid interaction of bnKCP1 with Gcn5 (HIS3, URA3, lacZ reporters); assay type: cell-based; conditions: MaV203 yeast, Gcn5 fused to Gal4 DB, data not shown
From the text: To reassess the interaction of bnKCP1 with Gcn5 in vivo, the ORF of the Arabidopsis Gcn5 was fused to the yeast Gal4 DNA binding domain in pDBLeu vector and then used to transform yeast MaV203 cells expressing bnKCP1 fused to the yeast Gal4 activation domain in pPC86 vector.

[6] = test system: lacZ reporter gene driven by promoter containing GAL4 DNA binding sites; assay: Transactivation assay of bnKCP1 using yeast one-hybrid system; assay type: cell-based, yeast MaV203
From the text: Effector plasmids pDBLeu-bnKCP1^1-160, pDBLeu-bnKCP1^1-80, pDBLeu-bnKCP1^81-215 and pDBLeu-bnKCP1 were constructed by ligating the PCR-amplified fragments ΔbnKCP1^1-160, ΔbnKCP1^1-80, ΔbnKCP1^81-215 and the coding region of bnKCP1 into the SalI/NotI sites of pDBLeu vector (GibcoL BRL) in-frame with the GAL4 DB sequence. The oligonucleotide primers for PCR amplification were as follows: […]
The three reporter genes, lacZ, HIS3 and URA3, which were chromosomally integrated in the genome of MaV203 yeast cells were driven by unrelated promoters containing GAL4 DNA binding sites (GibcoL BRL). For transient assays, the effector constructs or the negative control vector pDBLeu were transferred to the MaV203 yeast cells. The β-galactosidase activity was measured using CPRG (chlorophenol red-β-D-galactopyranoside) according to the manufacturer's instructions (GibcoL BRL). The MaV203 cells containing plasmids pDBLeu-HDA19 and pPC86-bnKCP1 were used as the positive control. In addition, we used three yeast control strains A, B, and C (GibcoL BRL), which were developed to contain plasmid pairs expressing fusion proteins with none, weak and moderately strong protein-protein interaction strength, respectively. Transient Expression of the GUS-bnCKP1 Fusion Protein

| Molecule | in vitro binding to GST-HDA19 [1] | transactivation of reporter genes HIS3 and URA3 ([2]; data not shown) | increase of β-galactosidase activity ([2]; relative to vector pDBLeu alone or yeast control strain A) | in vitro binding to GST-HDA19 [3] | in vitro binding to GST-Gcn5 [4] | induction of reporter genes HIS3, URA3 and lacZ with Gcn5, compared with HDA19 [5] | activation of reporter genes HIS3 and URA3 ([6]; data not shown) | stimulation of β-galactosidase activity ([6]; relative to GAL4 DB alone or yeast control strain A) |
| --- | --- | --- | --- | --- | --- | --- | --- | --- |
| B1 | bound | strongly transactivated | approximately 20 fold | – | – | – | – | – |
| B2 | – | – | – | bound | bound | relatively lower level | modestly activated | about 8 fold |
